Here are results for 1 molecule from publication PMC12614781, “The VelB IDD promotes selective heterodimer formation of velvet proteins for fungal development” (Life Science Alliance, 2025).

This assay addresses T1, VelB-GFP (A. nidulans Velvet-like B, full length, fused to GFP) (A. nidulans, UniProt C8VTS4 1-369).
T1 construct: Velvet-like B (VelB), A. nidulans, AN0363, full-length protein with the 99-aa intrinsically disordered domain (IDD) inside the velvet domain; Strains AGB1132 (wild-type background), AGB1190 (veA deletion background), AGB1136 (with vosA:ha), AGB1149 (with veA:ha); plasmid pME4687; Fusion printed as 67 kD; also called velB::sgfp; full-length VelB-GFP; source: A. nidulans, velB:gfp in locus under …
T1 sequence (looked up): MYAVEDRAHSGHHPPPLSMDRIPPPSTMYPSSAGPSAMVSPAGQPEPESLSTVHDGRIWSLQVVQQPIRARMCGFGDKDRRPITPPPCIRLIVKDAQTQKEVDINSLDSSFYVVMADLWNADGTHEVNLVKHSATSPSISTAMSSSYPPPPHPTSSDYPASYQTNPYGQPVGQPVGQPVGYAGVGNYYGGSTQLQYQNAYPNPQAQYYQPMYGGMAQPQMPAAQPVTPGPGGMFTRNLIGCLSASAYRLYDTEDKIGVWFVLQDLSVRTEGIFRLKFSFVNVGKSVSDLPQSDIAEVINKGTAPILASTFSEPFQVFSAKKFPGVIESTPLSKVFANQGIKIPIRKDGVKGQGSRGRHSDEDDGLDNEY
As to the kind of experiment: co-IP; GFP and HA (anti-HA agarose) pull-downs from vegetative mycelium of A. nidulans strains expressing veA:HA or vosA:HA and velB:gfp or velB^ΔIDD:gfp under native promoters, intact veA; Western with GFP and HA antibodies. Conditions: partners not purified.

B1: VosA-HA (A. nidulans VosA with HA tag) (natural protein, UniProt Q5BBX1 1-430, looked up)
chain: MSAANYPDPSLPRPSTSDDFELIVRQNPNRARVAGGKEKERKPVDPPPIVQIRVREEGTYLAQHYLQSPYFFMSCSLYDAQEDAPASIPPSTALTGTLVSSLHRLKDVDNTDGGFFVWGDLSIKVEGDFRLKFSLFEMRKTDVVFLKSIVSERFTVSPPKSFPGMAESTFLSRSFADQGVKLRIRKEPRTLIKRTAPRPEEYPQAAIPRSPSDRTAMQIPGSSYPAPPYQPTSRDYSYYAPVKRQRTSVDYGARGMYDADGRMRQMETYPQTATLYGQPGGYPTPMMGYPSGHGGVPDYAMSYGLPPSAQVPQMQDPAAQSRSSQQATMQSLGMVNPPGTPTPDSARAMMQQAYPRPQYSASTAVLPPLQQSRNYPQGTNGATRGYYEQSPQATPILPSQPLGTSEAERYGVPPGHTGYDHTGSANGTPR
notes: Viability of spores A (VosA), A. nidulans, AN1959; the vosA gene amplified with its 5' flanking region; Plasmid pME4693; strains AGB1136 (with velB:gfp) and AGB1137 (with velB^ΔIDD:gfp); source: A. nidulans, vosA:ha under its native promoter, in extract of vegetative mycelium
In the case of B1, the “fold abundance of VosA in the GFP pull-down against the VelB^ΔIDD-GFP strain” value is 10 fold.
